Results on one molecule are retold here after patent publication US20210403586A1, “MUTANT OF RANKL AND PHARMACEUTICAL COMPOSITION COMPRISING SAME FOR PREVENTING OR TREATING OSTEOPOROSIS” (INDUSTRY-ACADEMIC COOPERATION FOUNDATION CHOSUN UNIVERSITY, priority 2018, published 2021).

The test system of one assay is wtRANKL-induced mouse. The assay can be described thus: mtRANKL immunization in wtRANKL-induced osteoporosis mice, micro-CT. The format is in vivo. As for the experimental part:
(§1) The right femur of each mouse subjected to each experiment was incised and CT imaging was performed using a Quantum GX pCT imaging system (PerkinElmer, Hopkinton, Mass., USA) located at the Korea Basic Science Institute in Gwangju. As for the X-ray source, the field of view was set to 45 mm, 90 kV and […] (voxel size, 90 μm; scanning time, 14 minutes). CT imaging was performed using a Quantum GX 3D Viewer software. After scanning, image segmentation was performed in Analyze (AnalyzeDirect, Overland Park, Kans., USA). Briefly, the legs were segmented using semi-automatic and manual tools (e.g., object extractor, area expansion, and object separator) using volume editing tools. Then, a 3D rendering of the leg was created, and bone mineral density (BMD), bone volume (BV), bone volume percentage (%), and trabecular thickness were calculated using the ROI tools.
(§2) 17-week-old […] BALB/c mice were equally divided into 3 groups. The group was divided into a negative control group in which PBS was intraperitoneally injected, a group in which only wtRANKL was injected, and a group in which wtRANKL was injected after immunization with mtRANKL for 52 days. mtRANKL was injected after mixing with an aluminum hydroxide adjuvant. The immunization process started with 1st immunization of mtRANKL at 52 days, 2nd immunization at 39 days, 3rd immunization at 14 days each before injection of wtRANKL, and a total of 3 immunizations was performed. The amount of mtRANKL was 0.2 mg per mouse.
After 52 days, PBS was injected into the negative control group and wtRANKL was injected into the other two groups. Next day, wtRANKL was injected once more. wtRANK was subcutaneously injected (2.0 mg/kg). Serum was collected to determine the titer of anti-RANKL antibody. Then, after extracting tibias, the adhesive soft tissues of tibias were removed.
To examine whether RANKL has a bone destruction effect when RANKL was injected after immunization with mtRANKL, micro-CT analysis was performed by the method of Reference Example 6.

Another assay has as its system BALB/c mice. Briefly: Bone destruction by injected mtRANKL, micro-CT. The format is in vivo, mouse. The note with it: subcutaneous 1.0 mg/kg three times a week. As for the experimental part:
as §1
To investigate the bone-destructive effect of mtRANKL, 4-week-old male BALB/c mice (Orient Bio) were placed in a cage capable of accommodating up to 4 animals in a light-controlled environment ([…]) and provided with autoclaved water and both whole and powdered rodent diet (Purina, St. Louis, Mo., USA). Starting from 6 weeks of age, 9 mice were randomly divided into three groups, and each group was subcutaneously injected with wild-type RANKL (Amgen, Thousand Oaks, Calif., USA), mtRANKL purified in Reference Example 2, and saline three times a week (1.0 mg/kg). The trabecular bone in femoral neck was examined by Micro-CT analysis described in Reference Example 6.

A further assay relates to RANKL. The assay can be described thus: Western blot of serum for antibodies after mtRANKL immunization. In kind it is in vivo, mouse. The settings on record: mice immunized 3 times with 0.2 mg mtRANKL with aluminum hydroxide adjuvant. On the procedure: (§3) Proteins were separated by SDS-PAGE and electropermeated into a nitrocellulose membrane (Bio-Rad). After blocking the membrane with 5% (weight/volume) skim milk in TBST [10 mM Tris (pH 7.5), 150 mM NaCl, 0.1% (vol/vol) Tween 20], each mouse serum for primary antibody in the blocking solution was examined. The membrane was washed three times with Tris buffered saline. […] peroxidase (HRP)-conjugated secondary antibody was diluted 1:5000 with TBST in 1% (wt/vol) skim milk powder. ECL_system (Amersham Pharmacia Biotech) was used as the membrane.
as §2
To determine whether antibodies were produced due to mtRANKL immunization, Western blot of Reference Example 4 was performed on the collected serum, and the results are shown in FIG. 6A.
Background: Immunoblotting shows a protein as a band on a membrane.

The next assay concerns BMMs. Briefly: F-actin ring formation assay. In kind it is cell-based, mouse. The settings on record: mRANKL-MT3 150 ng/mL. As for the experimental part: We used bone-resorption and F-actin ring formation assays to investigate osteoclast activity. To observe bone resorption in vitro, BMMs were cultured in Corning Osteo Assay Surface 96-well Multiple Well Plates (Sigma) with 30 ng/mL M-CSF and 75 ng/mL sRANKL (soluble RANKL; R&D Systems) or isolated RANKL for 6 days. Then, the plates were washed with pure water. To monitor actin ring formation, BMMs were grown on glass slides. After culture, the cells were fixed with 4% formalin, permeabilized with 0.5% Triton X100 in PBS for 5 min at room temperature, and incubated with 0.5 mg/mL TRITC-labelled phalloidin for 30 min. The cells were then rinsed with PBS. F-actin rings were visualized using a fluorescence ECLIPSE Ts2R microscope (Nikon, Tokyo, Japan).

Another assay deals with RANK and LGR4 signaling. Briefly: Western blots of RANK and LGR4 signaling pathway proteins, RANKL variants. In kind it is cell-based, mouse. On the procedure:
as §3
Primary antibodies: AKT (Cell Signaling Technology, 1:1000), phospho-AKT (Cell Signaling Technology, #9271S, 1:1000), p38 (Cell Signaling Technology, 9212S, 1:1000), phospho-p38 (Cell Signaling Technology, #9211S, 1:1000), ERK (Cell Signaling Technology, 9102S, 1:1000), phospho-ERK (Cell Signaling Technology, #9101S, 1:1000), JNK (Cell Signaling Technology, 9252S, 1:1000), phosphoJNK (Cell Signaling Technology, #9251S, 1:1000), GSK-3β (Cell Signaling Technology, 9315S, 1:1000), phosphoGSK-3β (Cell Signaling Technology, #9336S, 1:1000), Src (Cell Signaling Technology, 2108S, 1:1000), phosphoSrc (Cell Signaling Technology, #2105S, 1:1000), NF-KB p65 (Cell Signaling Technology, #3034, 1:1000), phosphop65 (Cell Signaling Technology, #3031, 1:1000), RANK (Cell Signaling Technology, 4845S, 1:1000), Gaq (Cell Signaling Technology, 14373S, 1:1000), LGR4 (MyBioSource, MBS468030, 1:500), 20112360C-1, and GAPDH (Santa-Cruz Biotechnology, 1:2500).
To investigate the interaction of mRANKL variants and RANK, the co-immunoprecipitation (Co-IP) assays were carried out using mRANKL-WT/mRANKL-MT3 and RANK/LGR4 (FIG. 12A). In addition, wild-type RANKL induced MAPK, AKT, NF-κB p65, and GSK-3 phosphorylation, which is involved in LGR4 signaling (FIG. 12B).

[1] abbreviates: wtRANKL-injected mice vs mtRANKL-immunized mice with wtRANKL injection.

B1: mRANKL-MT3: mouse RANKL mutant: K180R, D189I, R190K, H223F, H224Y; nucleic acid SEQ ID NO: 3 (protein, UniProt O35235 158-316, looked up, variant K180R D189I R190K H223F H224Y)
chain: KPEAQPFAHLTINAASIPSGSHRVTLSSWYHIKGWAKISNMTLSNGKLRVNQDGFYYLYANICFRFYETSGSVPTDYLQLMVYVVKTSIKIPSSHNLMKGGSTKNWSGNSEFHFYSINVGGFFKLRAGEEISIQVSNPSLLDPDQDATYFGAFKVQDID
For the molecule B1, in the assay with wtRANKL-induced mouse (compared with PBS-treated mice), the “bone volume and percentage of bone volume” value is listed as “maintained at similar levels”. Besides, in the assay on wtRANKL-induced mouse (setting [1]), the BMD of tibias came to 795.8 ± 11.9 mg/mL; the “trabecular bone architecture of proximal tibias (micro-CT)” value was “thicker fibers and higher density than the wtRANKL-injected mice”. For the same molecule, the “trabecular bone by Micro-CT (osteoporosis)” value in the assay with BALB/c mice is “no significant change was observed”. Moreover, in the assay with RANKL, the “antibodies in serum (Western blot)” value is “antibodies were detected”. For the same molecule, the F-actin ring formation result in the assay on BMMs is listed as “no resorption pits or F-actin rings were observed”. Moreover, in the assay on RANK and LGR4 signaling (BMMs, Western blot), the GSK-3 phosphorylation result was “induced”; the “MAPK, AKT, and NF-κB p65 phosphorylation” value was “lower”. Also, the src phosphorylation entry in the assay on RANK and LGR4 signaling (mRANKL-MT3-induced BMMs vs mRANKL-WT induced BMMs) is “significantly lower”.
